B1: recombinant growth and differentiation factor 11 (GDF11) (ligand)
chain: NLGLDCDEHSSESRCCRYPLTVDFEAFGWDWIIAPKRYKANYCSGQCEYMFMQKYPHTHLVQQANPRGSAGPCCTPTKMSPINMLYFNDKQQIIYGKIPGMVVDRCGCS
B2: recombinant activin A (ligand)
chain: GLECDGKVNICCKKQFFVSFKDIGWNDWIIAPSGYHANYCEGECPSHIAGTSGSSLSFHSTVINHYRMRGHSPFANLKSCCVPTKLRPMSMLYYDDGQNIIKKDIQNMIVEECGCS

molecular target: activin type II B receptor (ActRIIB) (human (endogenous in HEK293T)) (UniProt Q13705)
Chain of UniProt Q13705 (Q13705 19-512): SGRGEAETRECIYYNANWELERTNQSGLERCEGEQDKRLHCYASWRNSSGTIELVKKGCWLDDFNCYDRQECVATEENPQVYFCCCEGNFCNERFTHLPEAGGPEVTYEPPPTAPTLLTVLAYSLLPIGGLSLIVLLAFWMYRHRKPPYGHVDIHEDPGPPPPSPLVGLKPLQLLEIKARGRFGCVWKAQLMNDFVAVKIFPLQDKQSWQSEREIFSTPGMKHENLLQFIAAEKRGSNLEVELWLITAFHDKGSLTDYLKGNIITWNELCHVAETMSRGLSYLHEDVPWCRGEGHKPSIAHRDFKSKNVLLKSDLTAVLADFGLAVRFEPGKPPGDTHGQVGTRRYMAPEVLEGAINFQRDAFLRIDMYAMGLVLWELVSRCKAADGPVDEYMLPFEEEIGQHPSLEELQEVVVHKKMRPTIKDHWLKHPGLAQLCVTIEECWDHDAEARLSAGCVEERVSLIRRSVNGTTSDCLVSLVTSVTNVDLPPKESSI

p-SMAD2/3 AlphaLISA response of HEK293T cells after 1 h of ligand; potency of the ligand with 100 nM anti-ActRIIB (murinized BYM338) applied overnight against 0 nM antibody | Molecule
> 100 fold | recombinant myostatin (Mstn) (from UniProt O14793 267-375) (ligand)
100 fold | B1
> 100 fold | B2

Reference: article PMC5376753
